Results: patent publication US20190177408A1 (SUZHOU CONNECT BIOPHARMACEUTICALS, published 2019)
Numbering of substitutions follows the chain as printed.

B1: L1001H1000 (antibody, V domains shown)
VH: EVQLVQSGGGLVHPGGSLRLSCAGSGFTFSRNAMFWVRQAPGKGLEWVSGIGTGGATNYADSVKGRFTISRDNAKNSLYLQMNSLRAEDMAVYYCARGRYYFDYWGQGTLVTVSS
VL: EIVLTQSPGTLSLSPGERATLSCRASQSVSNSYLAWYQQKPGQAPRLLIYGASSRAPGIPDRFSGSGSGTDFTLTISRLEPEDFAVYYCQQYDHSAGWTFGQGTKVEIK
notes: human kappa
B2: L1017H1000 (antibody, V domains shown)
VH: B1 VH
VL: not shown
notes: human kappa
B3: L1013H1000 (antibody, V domains shown)
VH: B1 VH
VL: B1 VL with Y50F, P57T, A96P, G97P
notes: human kappa
B4: L1020H1007 (antibody, V domains shown)
VH: B1 VH with N58S
VL: B1 VL with N31S, P57T
notes: human kappa
B5: L1021H1000 (antibody, V domains shown)
VH: B1 VH
VL: B1 VL with N31S, Y50F
notes: human kappa
B6: L1015H1000 (antibody, V domains shown)
VH: B1 VH
VL: B1 VL with N31S, Y50F, A96P, G97P
notes: human kappa
B7: L1020H1031 (antibody, V domains shown)
VH: B1 VH with Q6E, H13Q, G24A, N58S, M90T
VL: B1 VL with N31S, P57T
notes: human kappa
B8: L1020H1000 (antibody, V domains shown)
VH: B1 VH
VL: B1 VL with N31S, P57T
notes: human kappa
B9: L1020H1020 (antibody, V domains shown)
VH: B1 VH with N58S, D103P, Y104W
VL: B1 VL with N31S, P57T
notes: human kappa
B10: L1021H1029 (antibody, V domains shown)
VH: B1 VH with Q6E, H13Q, G24A, N58S, D103P, Y104W
VL: B1 VL with N31S, Y50F
notes: human kappa
B11: L1021H1007 (antibody, V domains shown)
VH: B1 VH with N58S
VL: B1 VL with N31S, Y50F
notes: human kappa
B12: L1021H1027 (antibody, V domains shown)
VH: B1 VH with Q6E, G24A, N58S, M90T, D103P, Y104W
VL: B1 VL with N31S, Y50F
notes: human kappa
B13: L1016H1000 (antibody, V domains shown)
VH: B1 VH
VL: B1 VL with N31S, Y50F, P57T, A96P, G97P
notes: human kappa
B14: L1020H1016 (antibody, V domains shown)
VH: B1 VH with D103P, Y104W
VL: B1 VL with N31S, P57T
notes: human kappa
B15: L1020H1027 (antibody, V domains shown)
VH: B1 VH with Q6E, G24A, N58S, M90T, D103P, Y104W
VL: B1 VL with N31S, P57T
notes: human kappa

What was measured:
IL-4Rα on TF-1 cells = target: T1, IL-4Rα on TF-1 cells (human, UniProt P24394 26-825); test: cell-based or functional assay
T1 sequence (looked up): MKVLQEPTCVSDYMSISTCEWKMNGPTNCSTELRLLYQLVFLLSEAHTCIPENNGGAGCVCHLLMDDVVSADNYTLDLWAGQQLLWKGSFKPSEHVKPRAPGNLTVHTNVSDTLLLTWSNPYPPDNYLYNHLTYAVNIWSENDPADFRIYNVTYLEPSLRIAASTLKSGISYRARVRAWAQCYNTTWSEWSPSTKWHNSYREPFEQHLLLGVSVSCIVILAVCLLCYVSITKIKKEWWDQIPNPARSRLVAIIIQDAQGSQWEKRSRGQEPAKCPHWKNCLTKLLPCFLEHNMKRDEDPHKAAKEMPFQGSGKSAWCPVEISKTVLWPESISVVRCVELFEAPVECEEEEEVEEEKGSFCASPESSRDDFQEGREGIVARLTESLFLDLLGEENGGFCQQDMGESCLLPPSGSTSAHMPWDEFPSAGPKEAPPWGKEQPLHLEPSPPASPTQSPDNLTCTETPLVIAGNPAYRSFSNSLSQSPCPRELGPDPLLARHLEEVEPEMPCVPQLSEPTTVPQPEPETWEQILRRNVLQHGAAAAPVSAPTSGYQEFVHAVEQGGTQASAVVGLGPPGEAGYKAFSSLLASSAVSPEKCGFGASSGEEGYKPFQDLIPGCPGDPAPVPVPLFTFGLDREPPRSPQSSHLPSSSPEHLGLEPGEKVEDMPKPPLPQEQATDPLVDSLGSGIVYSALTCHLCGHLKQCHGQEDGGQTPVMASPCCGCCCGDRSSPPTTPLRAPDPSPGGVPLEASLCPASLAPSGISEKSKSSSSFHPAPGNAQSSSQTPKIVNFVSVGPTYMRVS

[1] = target: T2, human soluble IL-4Rα (sIL-4Rα) (human, UniProt P24394 26-232); test: ELISA, coated sIL-4Rα, culture supernatant
T2 construct: Bought reagent (PEPRO TECH, Catalog Number 200-04R); also called shIL-4Rα; soluble hIL-4 Rα
T2 sequence: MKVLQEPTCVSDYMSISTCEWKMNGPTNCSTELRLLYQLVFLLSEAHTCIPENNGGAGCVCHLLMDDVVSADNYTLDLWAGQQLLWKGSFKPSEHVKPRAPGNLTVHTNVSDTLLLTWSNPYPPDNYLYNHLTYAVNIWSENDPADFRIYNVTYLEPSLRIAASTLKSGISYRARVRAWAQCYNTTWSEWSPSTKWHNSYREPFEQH
Protocol: 100 μl of 100 μg/ml sIL-4Rα solution was added to 9.90 ml of PBS, mixed up and down, and then an antigen coating buffer of 1.0 μg/ml was obtained. The prepared antigen coating buffer was added to a 96-well ELISA plate (Corning) with a volume of 100 μl per well. The 96-well ELISA plate was incubated overnight in a refrigerator at 4° C. On the next day; the solution therein was discarded; and PBS containing 2% BSA was added to the 96-well ELISA plate row by row with a volume of 300 μl per well. The 96-well ELISA plate was incubated for 2 hours in a refrigerator at 4° C., Then the PBS containing 2% BSA was discarded and the plate was washed 3 times with PBST. Diluted antibodies to be tested were sequentially added to the corresponding wells, while the normal cell culture supernatants, as negative control samples, were added too. Three duplicate wells were made for each sample with a volume of 100 μl per well. The ELISA plate was wrapped with preservative film (or covered) and incubated for 1 h at […] in a constant temperature incubator. Subsequently, the 96-well ELISA plate was taken out, and the solution therein was discarded. After washing with PBST for 3 times, TMB solution (Solarbio, Catalog Number: PR1200) was added to the 96-well ELISA plate row by row with a volume of 100 μl per well. The 96-well ELISA plate was placed at room temperature for 5 minutes, and 2 M H2SO4 solution was added in immediately to terminate the reaction. The 96-well ELISA plate was placed in flexstation 3 (Molecular Devices), the values of OD450 were read, and the data were collected, calculated and analyzed. Results were expressed relative to the affinity of control antibody 1.

Binder | Inhibitory rate on pro-proliferative effect of IL-4 (IL-4Rα on TF-1 cells) | Inhibitory rate on pro-proliferative effect of IL-13 (IL-4Rα on TF-1 cells) | OD 450/OD450Control antibody 1 [1]
B1 | 0.98 | 0.85 | 1.56
B2 | – | – | 0.49
B3 | – | – | 0.24
B4 | – | – | 0.4
B5 | 0.95 | 0.78 | 2.42
B6 | – | – | 0.67
B7 | – | – | 1.12
B8 | – | – | 2.27
B9 | – | – | 0.26
B10 | 1.02 | 0.92 | 1
B11 | 1 | 0.86 | 0.44
B12 | 1.02 | 0.94 | 0.29
B13 | – | – | 0.27
B14 | – | – | 0.8
B15 | – | – | 0.4
